Reference: US20230087128A1 (KEROS THERAPEUTICS, published 2023)

T1: Activin B (UniProt P09529 293-407)
T1 sequence (looked up): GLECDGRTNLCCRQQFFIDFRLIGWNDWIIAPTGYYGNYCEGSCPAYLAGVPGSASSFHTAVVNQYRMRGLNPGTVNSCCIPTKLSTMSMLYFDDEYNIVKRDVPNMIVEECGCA

T2: Activin A (UniProt P08476 311-426)
T2 sequence (looked up): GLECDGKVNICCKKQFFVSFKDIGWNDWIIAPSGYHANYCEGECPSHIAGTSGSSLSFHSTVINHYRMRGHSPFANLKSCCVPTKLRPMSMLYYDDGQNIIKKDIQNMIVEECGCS

T3: BMP-9, Q9UK05
T3 chain: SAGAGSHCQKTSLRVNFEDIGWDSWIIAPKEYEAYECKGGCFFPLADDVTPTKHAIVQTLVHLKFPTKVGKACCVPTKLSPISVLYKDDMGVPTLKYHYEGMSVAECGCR

B1: ActRIIB (SEQ ID NO: 17)-Fc (Fc fusion, not shown: a dimerising Fc or GST)
chain: GRGEAETRECIYYNANWELERTNQSGLERCEGEQDKRLHCYASWRNSSGTIELVKKGCWLDDFNCYDRQECVATEENPQVYFCCCEGNFCNERFTHLPEAGGPEVTYEPPPTAPT
notes: Recombinant wild-type extracellular ActRIIB-Fc; also called ActRIIB-Fc
B2: BMP-9 (ligand, UniProt Q9UK05 320-429, looked up)
chain: SAGAGSHCQKTSLRVNFEDIGWDSWIIAPKEYEAYECKGGCFFPLADDVTPTKHAIVQTLVHLKFPTKVGKACCVPTKLSPISVLYKDDMGVPTLKYHYEGMSVAECGCR
notes: also called bone morphogenetic protein 9
B3: growth differentiation factor 11 (GDF11) (ligand, UniProt O95390 299-407, looked up)
chain: NLGLDCDEHSSESRCCRYPLTVDFEAFGWDWIIAPKRYKANYCSGQCEYMFMQKYPHTHLVQQANPRGSAGPCCTPTKMSPINMLYFNDKQQIIYGKIPGMVVDRCGCS

Tests used:
Assay in all cases: SPR (Biacore 3000), Fc fusion captured, ligand in solution
Activin B = target: T1, Activin B
Source text: (§1) The GE Biacore 3000 was used to measure the kinetics of the interactions between the ActRIIB-Fc variants and the ligands Activin A, Activin B, growth differentiation factor 11 (GDF11), and BMP-9. […] All other ActRIIB-Fc variants were expressed by transient expression in HEK293 cells and purified from the conditioned media using Protein-A Sepharose chromatography. Flow cells 1-4 were immobilized with anti-human/anti-mouse capture antibodies from GE using the amine coupling kit. The ActRII-Fc proteins were then captured on the chip in flow cells 2-4, with flow cell 1 being left empty as a reference cell to measure and subtract any nonspecific binding. HBS-EP+ buffer from GE Healthcare™ was used as a running buffer. Each ligand was run in a duplicate concentration series at 40 μl/min to avoid mass transport effects. All data was collected on a CM-5 chip except for GDF-11, which used CM-4. The data was analyzed using Scrubber2 by BioLogic™ Software to calculate the KD of each interaction (Table 4).

[1] = target: B3
Source text: as §1

Activin A = target: T2, Activin A
Source text: as §1

BMP-9, Q9UK05 = target: T3, BMP-9, Q9UK05; details: remark: other sources report otherwise
BMP-9 = target: B2
Source text: as §1

[2] = target: B1
Source text: as §1

Kd (Activin B) [nM]	Kd (Activin A) [nM]	Kd [1] [nM]	Kd (BMP-9) [nM]	Binder	also measured
				ActRIIB/A variant (SEQ ID NO: 2)-Fc (Fc fusion, not shown: a dimerising Fc or GST, Engineered variant of the human ActRIIB extracellular portion; expressed transiently in HEK293 and Protein A purified (SPR); conditioned media in the reporter assay; also called ActRIIB/A-Fc) GRGEAETRECIFYNANWEKDRTNQSGLEPCYGDQDKRRHCFASWKNSSGTIELVKQGCWLDDINCYDRQECVAKKDSPEVYFCCCEGNFCNERFTHLPEAGGPEVTYEPPPTAPT	binding result (Activin B): no binding; binding result [1]: no binding; binding result (Activin A): no binding; Kd (BMP-9, Q9UK05): 88 nM
0.023	0.063			B1	
400	390	530	28	ActRIIBΔ9 variant (SEQ ID NO: 3)-Fc (Fc fusion, not shown: a dimerising Fc or GST, Engineered variant of the human ActRIIB extracellular portion) GRGEAETRECIYYNANWELDRTNQSGLERCEGEQDKRLHCYASWRNSSGTIELVKKGCWLDDINCYDRQECVATKENPQVYFCCCEGNFCNERFTHLPEAGGPEVTYEPPPTAPT	
0.37	0.78	0.24	2.7	ActRIIB 2.11 variant (SEQ ID NO: 14)-Fc (Fc fusion, not shown: a dimerising Fc or GST, Engineered variant of the human ActRIIB extracellular portion; recombinant protein) GRGEAETRECLYYNANWELERTNQSGVERCEGEKDKRLHCYASWRNSSGSLEIVKKGCWLDDFNCYDRTDCVATKENPQVYFCCCEGNMCNERFTHLPEAGGPEVTYEPPPTAPT	
				B2	Kd [2]: 0.28 nM
0.16	0.1		0.44	ActRIIB 2.09 variant (SEQ ID NO: 12)-Fc (Fc fusion, not shown: a dimerising Fc or GST, Engineered variant of the human ActRIIB extracellular portion; also called ActRIIB variant 2.09-hFc) GRGEAETRECLYYNANWELERTNQSGVERCEGEKDKRLHCYASWRNSSGSLEIVKKGCWLDDFNCYDRTDCVATEENPQVYFCCCEGNMCNERFTHLPEAGGPEVTYEPPPTAPT	
0.28	0.45		1.7	ActRIIB 2.10 variant (SEQ ID NO: 13)-Fc (Fc fusion, not shown: a dimerising Fc or GST, Engineered variant of the human ActRIIB extracellular portion; also called ActRIIB variant 2.10-hFc) GRGEAETRECLYYNANWELERTNQSGVERCEGEKDKRLHCYASWRNSSGSLEIVKKGCWLDDFNCYDRDTCVATEENPQVYFCCCEGNMCNERFTHLPEAGGPEVTYEPPPTAPT	
0.1	0.053	0.027	0.3	ActRIIB 2.06 variant (SEQ ID NO: 9)-Fc (Fc fusion, not shown: a dimerising Fc or GST, Engineered variant of the human ActRIIB extracellular portion; recombinant protein; also called ActRIIB variant 2.06-hFc) GRGEAETRECIYYNANWELERTNQSGLERCEGEQDKRLHCFASWKNSSGTIELVKQGCWLDDFNCYDRQECVAKKDSPEVYFCCCEGNFCNERFTHLPEAGGPEVTYEPPPTAPT	
				ActRIIB 2.05 variant (SEQ ID NO: 8)-Fc (Fc fusion, not shown: a dimerising Fc or GST, Engineered variant of the human ActRIIB extracellular portion) GRGEAETRECIYYNANWELERTNQSGLERCYGDKDKRLHCYASWRNSSGTIELVKKGCWLDDFNCYDRQECVAKKDSPEVYFCCCEGNFCNERFTHLPEAGGPEVTYEPPPTAPT	binding result (BMP-9): no binding
0.16	0.14	0.13	31	ActRIIB 2.12 variant (SEQ ID NO: 15)-Fc (Fc fusion, not shown: a dimerising Fc or GST, Engineered variant of the human ActRIIB extracellular portion; recombinant protein) GRGEAETRECLYYNANWELERTNQSGVERCEGEKDKRLHCYASWRNSSGSLEIVKKGCWLDDFNCYDRDTCVATKENPQVYFCCCEGNMCNERFTHLPEAGGPEVTYEPPPTAPT	
				B3	Kd [2]: 0.12 nM
